Assay results reported in patent JP2016528193A (dated 2016).

Key:
ヒトPCSK9(野生型) [1] = molecular target: ヒトPCSK9(野生型) (human); test: KinExA solution equilibrium, PCSK9-coated beads
ヒトPCSK9(野生型) [2] = molecular target: ヒトPCSK9(野生型) (human); test: Biacore at pH 6.0 (HBS-P with 0.01 % BSA), fitted from competition curves, n=1

Kd (ヒトPCSK9(野生型) [1]) [nM] | Kd (ヒトPCSK9(野生型) [2]) [nM] | Binder
0.003 | 0.0125 | 31H4 (antibody, V domains shown) VH: EVQLVESGGGLVKPGGSLRLSCAASGFTFSSYSMNWVRQAPGKGLEWVSSISSSSSYISYADSVKGRFTISRDNAKNSLYLQMNSLRAEDTAVYFCARDYDFWSAYYDAFDVWGQGTMVTVSS VL: QSVLTQPPSVSGAPGQRVTISCTGSSSNIGAGYDVHWYQQLPGTAPKLLISGNSNRPSGVPDRFSGSKSGTSASLAITGLQAEDEADYYCQSYDSSLSGSVFGGGTKLTVLQ
0.015 | 0.029 | 16F12 (antibody, V domains shown) VH: QVHLVESGGGVVQPGRSLRLSCAASGFTFNSFGMHWVRQAPGKGLEWVALIWSDGSDEYYADSVKGRFTISRDNSKNTLYLQMNSLRAEDTAVYYCARAIAALYYYYGMDVWGQGTTVTVSS VL: QSVLTQPPSVSAAPGQKVTISCSGSSSNIGNNFVSWYQQLPGTAPKLLIYDYNKRPSGIPDRFSGSKSGTSATLGITGLQTGDEADYYCGTWDSSLSAYVFGTGTRVTVLQ
